Numbering of substitutions follows the chain as printed. Numbers in names are those of the source.
B1: E35D/M43I/M47L/L85M (protein)
chain: VIHVTKEVKEVATLSCGHNVSVEELAQTRIYWQKDKKMVLTMISGDLNIWPEYKNRTIFDITNNLSIVILALRPSDEGTYECVVMKYEKDAFKREHLAEVTLSVKAD
B2: E35D/M47L/A71G (protein)
chain: B1 chain with I43M, A71G, M85L
B3: E35D/D46E/M47V/V68M/L85Q (protein, UniProt P33681 35-288, looked up, variant E35D D46E M47V V68M L85Q)
T-lymphocyte activation …: VIHVTKEVKEVATLSCGHNVSVEELAQTRIYWQKDKKMVLTMMSGEVNIWPEYKNRTIFDITNNLSIMILALRPSDEGTYECVVQKYEKDAFKREHLAEVTLSVKADFPTPSISDFEIPTSNIRRIICSTSGGFPEPHLSWLENGEELNAINTTVSQDPETELYAVSSKLDFNMTTNHSFMCLIKYGHLRVNQTFNWNTTKQEHFPDNLLPSWAITLISVNGIFVICCLTYCFAPRCRERRRNERLRRESVRPV
B4: E35D/M47V/V68M/L85M/Y87D (protein, UniProt P33681 35-288, looked up, variant E35D M47V V68M L85M Y87D)
T-lymphocyte activation …: B3 T-lymphocyte activation … with E46D, Q85M, Y87D
B5: H18Y/E35D/V68M/A71G/R94Q/E95V (protein, UniProt P33681 35-288, looked up, variant H18Y E35D V68M A71G R94Q E95V)
T-lymphocyte activation …: B3 T-lymphocyte activation … with H18Y, E46D, V47M, A71G, Q85L, R94Q, E95V
modifications: Fc fusion
B6: E35D/D46V/V68M/L85Q (protein)
chain: B1 chain with I43M, D46V, L47M, V68M, M85Q
B7: E35D/D46V/V68M (protein)
chain: B1 chain with I43M, D46V, L47M, V68M, M85L
B8: E35D/D46V/M47L (protein)
chain: B1 chain with I43M, D46V, M85L
B9: V68M/K89N (protein)
chain: B1 chain with D35E, I43M, L47M, V68M, M85L, K89N
B10: E35D/V68M/K89N (protein)
chain: B1 chain with I43M, L47M, V68M, M85L, K89N
B11: E35D/M47V/V68M/K89N (protein)
chain: B1 chain with I43M, L47V, V68M, M85L, K89N
B12: E35D/D46V/M47L/V68M (protein)
chain: B1 chain with I43M, D46V, V68M, M85L
B13: D46V/V68M/L85Q (protein)
chain: B1 chain with D35E, I43M, D46V, L47M, V68M, M85Q
B14: E35D/M47V/N48K/V68M (protein)
chain: B1 chain with I43M, L47V, N48K, V68M, M85L
B15: E35D/M47V/N48K (protein)
chain: B1 chain with I43M, L47V, N48K, M85L
B16: E35D/M47L/V68M/A71G (protein)
chain: B1 chain with I43M, V68M, A71G, M85L
B17: H18Y/M47L/A71G/D90G (protein)
chain: B1 chain with H18Y, D35E, I43M, A71G, M85L, D90G
B18: A26E/V68M/A71G/D90G (protein)
chain: B1 chain with A26E, D35E, I43M, L47M, V68M, A71G, M85L, D90G
B19: N48K/V68M/K89N (protein)
chain: B1 chain with D35E, I43M, L47M, N48K, V68M, M85L, K89N
B20: D46V/M47L (protein)
chain: B1 chain with D35E, I43M, D46V, M85L

The molecules below were run against CD28 (Homo sapiens, UniProt P10747) (assay: Jurkat/IL2 + CHO/OKT3 +/- PD-L1 reporter assay: PD-L1-dependent CD28 costimulation). Conditions: Table E12; Jurkat/IL2 + CHO/OKT3/PD-L1; 5.0 nM.
Type: cell-based
Parameters: host or cells: Jurkat cells expressing an IL-2-luciferase reporter
Description: Jurkat cells were then plated at 50 μL/well for a total of 100,000 cells per well.
To each well, 25 μL of test protein was added to the Jurkat cells. […] The Jurkat cells with test or control proteins were incubated for 15 minutes at room temperature. CHO-derived artificial antigen presenting cells (aAPC) displaying transduced cell surface anti-CD3 single chain Fv (OKT3) (i.e., no PD-L1), or OKT3 and PD-L1 (i.e., +PD-L1), were brought to 0.8×10^6 cells/mL, and 25 μL of cells were added to each well, bringing the final volume of each well to 100 μL. […] Jurkat cells and CHO cells were incubated for 5 hours at 37 degrees Celsius in a humidified 5% CO2 incubation chamber. Plates were then removed from the incubator and acclimated to room temperature for 15 minutes. 100 μL of a cell lysis and luciferase substrate solution (BioGlo luciferase reagent, Promega) were added to each well and the plates were incubated on an orbital shaker for 10 minutes. Luminescence was measured with a 1 second per well integration time using a BioTek Cytation luminometer, and a relative luminescence value (RLU) was determined for each test sample.

Molecule	Relative Luciferase Units (RLU), CD80 Cone 5.0 nM [RLU]
B1	1427
B2	1954

Same assay, conditions: Table E13; Jurkat/IL2 + CHO/OKT3/PD-L1; 5.0 nM

Molecule	Relative Luciferase Units (RLU), CD80 Cone 5.0 nM [RLU]
B3	1006
B4	1181
B5	183

Same assay, conditions: Table E17; consensus variants; Jurkat/IL2 + CHO/OKT3/PD-L1; 5.0 nM

Molecule	Relative Luciferase Units (RLU), CD80 Cone 5.0 nM [RLU]
B5	1968

Same assay, conditions: Table E21; Jurkat/IL2 + CHO/OKT3/PD-L1; CD80 Conc 5.0 nM

Molecule	Relative Luciferase Units (RLU), CD80 Conc 5.0 nM [RLU]
B6	864
B7	799
B8	746
B9	100
B10	537
B11	779
B12	681
B13	267
B14	747
B15	561

Same assay, conditions: Table E22; Jurkat/IL2 + CHO/OKT3/PD-L1; CD80 Conc 5.0 nM

Molecule	Relative Luciferase Units (RLU), CD80 Conc 5.0 nM [RLU]
B16	745
B17	675
B18	590

The molecules below were run against huCTLA4 (Homo sapiens, UniProt P16410) (assay: Flow binding to CHO cells stably expressing CTLA4). Conditions: Table E10; 33.3 nM; CHO cells stably expressing CTLA4.
Chain of huCTLA4 (P16410 36-223): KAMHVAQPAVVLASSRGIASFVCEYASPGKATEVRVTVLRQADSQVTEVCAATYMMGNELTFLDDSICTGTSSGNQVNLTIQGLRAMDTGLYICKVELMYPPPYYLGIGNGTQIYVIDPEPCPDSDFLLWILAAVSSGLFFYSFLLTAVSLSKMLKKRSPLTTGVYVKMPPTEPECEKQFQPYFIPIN
Parameters: huCTLA4 and huPD-L1, full-length mammalian surface expression constructs were generated; expressed in transfected cells; host or cells: CHO cells, lentiviral transduction, sorted to >98% purity
Description: (§1) Binding of selected immunomodulatory fusion proteins to cognate binding partners was assessed. […] Cells were sorted in a Bio-Rad S3 Cell Sorter (Bio-Rad Corp., USA) to >98% purity. Jurkat/IL2 reporter cells, which endogenously express CD28, were used to detect binding to CD28.
(§2) For staining and analysis by flow cytometry, 100,000 cells of appropriate transfected cells were plated in 96-well round bottom plates. Cells were spun down and resuspended in staining buffer (phosphate buffered saline (PBS), 1% bovine serum albumin (BSA), and 0.1% sodium azide) for 20 minutes to block non-specific binding. […] Primary staining was performed on ice for 45 minutes, before washing cells in staining buffer twice. Phycoerythrin (PE)-conjugated anti-human Fc (Jackson ImmunoResearch, USA) was diluted 1:150, added to cells and incubated another 30 minutes on ice. Cells were then washed twice with 150 μL/well stain buffer, fixed in 2% formaldehyde/PBS, and analyzed on Intellicyt flow cytometer (Intellicyt Corp., USA). PE Mean Fluorescence Intensity (MFI) was calculated for each cell type with FlowJo Version 10 software (FlowJo LLC, USA).
(§3) Binding assays were carried out to assess the specificity and affinity of multivalent proteins to cell-expressed CTLA-4, CD28, and PD-L1 counter structures.
(§4) The EC50 for binding also was determined.

Molecule	CTLA4 MFI at 33.3 nM
B1	24584
B2	20576

Same assay, conditions: Table E11; CHO cells stably expressing CTLA4; 33.3 nM

Molecule	CTLA4 MFI at 33.3 nM
B3	15533
B4	13936
B5	18281

Same assay, conditions: Table E16; consensus variants; CHO cells stably expressing CTLA4; 33.3 nM

Molecule	CTLA4 MFI at 33.3 nM
B5	19396

Same assay, conditions: Table E19; CHO cells stably expressing CTLA4; 33.3 nM

Molecule	CTLA4 MFI at 33.3 nM
B19	19129
B6	32176
B7	31195
B8	44977
B9	2330
B10	24838
B11	29493
B12	34319
B13	7567
B20	49711
B14	32913
B15	47430

Same assay, conditions: Table E20; CHO cells stably expressing CTLA4; 33.3 nM

Molecule	CTLA4 MFI at 33.3 nM
B16	24656
B17	18162
B18	8666

These molecules were tested against huPD-L1 (Homo sapiens, UniProt Q9NZQ7) (assay: Flow binding to CHO cells stably expressing PD-L1). Conditions: Table E11; CHO cells stably expressing PD-L1; 33.3 nM.
Chain of huPD-L1 (Q9NZQ7 19-290): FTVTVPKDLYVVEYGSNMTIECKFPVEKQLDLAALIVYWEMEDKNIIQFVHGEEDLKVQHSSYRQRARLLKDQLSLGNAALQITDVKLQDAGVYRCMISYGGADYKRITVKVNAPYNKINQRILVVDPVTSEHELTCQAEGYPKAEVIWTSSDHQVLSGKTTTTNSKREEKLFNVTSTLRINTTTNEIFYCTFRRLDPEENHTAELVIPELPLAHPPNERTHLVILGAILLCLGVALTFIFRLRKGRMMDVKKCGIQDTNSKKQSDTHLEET
Parameters: huCTLA4 and huPD-L1, full-length mammalian surface expression constructs were generated; expressed in transfected cells; host or cells: CHO cells, lentiviral transduction, sorted to >98% purity
Description: as §1, §2, §3, §4

Molecule	PD-L1 MFI at 33.3 nM
B3	1723
B4	1721

Same assay, conditions: Table E19; CHO cells stably expressing PD-L1; 33.3 nM

Molecule	PD-L1 MFI at 33.3 nM
B19	11464
B7	26114
B8	7988
B11	21827
B14	23479
B15	4852

Same assay, conditions: Table E20; CHO cells stably expressing PD-L1; 33.3 nM

Molecule	PD-L1 MFI at 33.3 nM
B16	27872
B18	3195
